Consider one molecule from patent US20250152729A1 (CANCER RESEARCH TECHNOLOGY, published 2025).

The target in experiment [1] is T1, mouse SEMA4A expressed on expi293 cells (UniProt ID Q62178) (mouse, UniProt Q62178 33-760).
T1 construct: Transient transfection in expi293 cells
T1 sequence: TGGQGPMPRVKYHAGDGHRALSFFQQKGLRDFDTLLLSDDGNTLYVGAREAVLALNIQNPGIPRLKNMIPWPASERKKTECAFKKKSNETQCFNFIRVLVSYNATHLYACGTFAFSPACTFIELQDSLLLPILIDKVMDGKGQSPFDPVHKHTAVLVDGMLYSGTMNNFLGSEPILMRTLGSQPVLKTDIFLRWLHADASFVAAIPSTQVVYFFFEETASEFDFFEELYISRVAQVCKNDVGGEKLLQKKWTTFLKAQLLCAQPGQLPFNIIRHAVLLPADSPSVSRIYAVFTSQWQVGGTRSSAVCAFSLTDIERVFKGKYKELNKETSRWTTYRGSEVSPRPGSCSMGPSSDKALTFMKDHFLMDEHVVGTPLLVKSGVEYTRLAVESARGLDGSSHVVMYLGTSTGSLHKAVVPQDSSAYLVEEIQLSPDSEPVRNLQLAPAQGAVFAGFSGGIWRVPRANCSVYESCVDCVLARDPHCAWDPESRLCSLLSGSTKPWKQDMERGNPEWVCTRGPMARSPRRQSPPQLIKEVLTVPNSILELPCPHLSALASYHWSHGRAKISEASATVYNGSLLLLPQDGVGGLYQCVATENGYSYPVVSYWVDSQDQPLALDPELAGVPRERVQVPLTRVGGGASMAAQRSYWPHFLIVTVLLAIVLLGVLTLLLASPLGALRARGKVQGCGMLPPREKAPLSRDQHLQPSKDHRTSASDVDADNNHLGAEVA
The experiment is described as follows: Mirrorball direct binding, dilution series on expi293 cells transiently transfected with mouse SEMA4A, anti-human Alexa Fluor 647. From the text:
(§1) Hits from the primary screening were re-formatted into the human Alya IgG1 vector and re-expressed and purified as described in section 4.1. In addition, a single clone was identified that contained an Asparagine deamidation motif (Asn Gly) within its VHCDR2. This potential sequence liability was de-risked by synthesising de novo two clonal variant VH genes (Asn Ala and Gln Gly) and cloning these sequences into the human Alya IgG1 expression vector. To determine the specificity profile of each purified human Alya IgG1, a dilution series was tested for binding to human SEMA4A, mouse SEMA4A, cyno SEMA4A, human SEMA4B and mock transfected cells (transient transfections set up in expi 293 cells.) The five assays employed methods described in section 2.3, using the appropriate cells and substituting the un-purified scFv periplasmic preparation with the recombinant human Alya IgG1 dilution series. Data was analysed as Count x median mean intensity (x FLU).

In experiment [2] the target is T2, human SEMA4B expressed on expi293 cells (human, UniProt Q9NPR2 44-837).
T2 construct: whole, on cells
T2 sequence (looked up): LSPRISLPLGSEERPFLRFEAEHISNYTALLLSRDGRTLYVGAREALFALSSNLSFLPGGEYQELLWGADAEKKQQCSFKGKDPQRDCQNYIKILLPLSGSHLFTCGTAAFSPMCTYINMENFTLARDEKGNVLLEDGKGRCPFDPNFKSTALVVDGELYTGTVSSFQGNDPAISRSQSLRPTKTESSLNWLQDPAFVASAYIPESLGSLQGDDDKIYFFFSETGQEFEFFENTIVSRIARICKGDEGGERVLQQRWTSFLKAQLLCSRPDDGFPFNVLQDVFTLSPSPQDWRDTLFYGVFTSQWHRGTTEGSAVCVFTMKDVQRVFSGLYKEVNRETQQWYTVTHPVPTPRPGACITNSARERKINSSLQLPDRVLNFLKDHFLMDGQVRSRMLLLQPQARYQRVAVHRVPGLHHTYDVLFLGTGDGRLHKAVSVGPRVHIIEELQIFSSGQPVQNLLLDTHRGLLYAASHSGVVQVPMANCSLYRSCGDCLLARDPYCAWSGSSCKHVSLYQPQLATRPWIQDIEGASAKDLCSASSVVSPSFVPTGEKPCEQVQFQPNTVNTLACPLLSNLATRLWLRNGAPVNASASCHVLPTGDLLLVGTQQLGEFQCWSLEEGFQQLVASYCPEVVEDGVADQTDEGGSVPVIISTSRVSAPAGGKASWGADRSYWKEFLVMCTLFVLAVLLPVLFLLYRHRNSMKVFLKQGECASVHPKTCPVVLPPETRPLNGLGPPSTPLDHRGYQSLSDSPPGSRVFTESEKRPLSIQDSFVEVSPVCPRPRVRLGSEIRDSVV
The experiment is described as follows: Mirrorball direct binding, dilution series on expi293 cells transiently transfected with human SEMA4B, anti-human Alexa Fluor 647.
From the text: as §1

Experiment [3] deals with T3, human SEMA4A expressed on cells (UniProt ID Q9H3S1, isoform 1) (human, UniProt Q9H3S1 33-761).
T3 construct: Cell-surface SEMA4A: endogenous on MM.1S, NCI-H929 and Karpas-25 cells, or expi293 cells transfected with Origene SC323738; also called human Semaphorin4A; SEMA4A endogenously expressed on MM.1S cells
T3 sequence: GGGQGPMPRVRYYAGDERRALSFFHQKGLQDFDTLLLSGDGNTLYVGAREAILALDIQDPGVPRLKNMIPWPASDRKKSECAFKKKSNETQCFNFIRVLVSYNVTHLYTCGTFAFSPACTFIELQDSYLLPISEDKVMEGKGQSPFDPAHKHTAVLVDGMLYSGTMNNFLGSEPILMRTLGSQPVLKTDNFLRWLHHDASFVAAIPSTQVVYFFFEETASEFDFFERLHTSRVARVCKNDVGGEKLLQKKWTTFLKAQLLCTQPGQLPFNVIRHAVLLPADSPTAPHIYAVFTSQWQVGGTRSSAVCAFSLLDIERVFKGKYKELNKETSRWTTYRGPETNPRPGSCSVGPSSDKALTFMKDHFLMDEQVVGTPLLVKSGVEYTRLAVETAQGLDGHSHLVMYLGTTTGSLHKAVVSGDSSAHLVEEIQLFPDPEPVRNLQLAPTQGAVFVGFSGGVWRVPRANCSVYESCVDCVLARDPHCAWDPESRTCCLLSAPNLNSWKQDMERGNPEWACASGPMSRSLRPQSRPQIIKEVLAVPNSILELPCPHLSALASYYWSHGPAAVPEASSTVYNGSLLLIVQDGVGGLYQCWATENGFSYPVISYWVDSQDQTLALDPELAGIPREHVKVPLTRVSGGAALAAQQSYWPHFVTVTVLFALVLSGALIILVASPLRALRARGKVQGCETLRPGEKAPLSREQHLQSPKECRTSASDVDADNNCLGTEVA
The experiment is described as follows: Mirrorball direct binding, dilution series on expi293 cells transiently transfected with human SEMA4A, anti-human Alexa Fluor 647.
From the text: as §1

Experiment [4] concerns the target T4, cynomolgus SEMA4A expressed on expi293 cells (UniProt ID G7NV79) (cynomolgus, UniProt Q9H3S1 33-761 (human entry)).
T4 construct: Transient transfection in expi293 cells; also called cyno SEMA4A
T4 chain: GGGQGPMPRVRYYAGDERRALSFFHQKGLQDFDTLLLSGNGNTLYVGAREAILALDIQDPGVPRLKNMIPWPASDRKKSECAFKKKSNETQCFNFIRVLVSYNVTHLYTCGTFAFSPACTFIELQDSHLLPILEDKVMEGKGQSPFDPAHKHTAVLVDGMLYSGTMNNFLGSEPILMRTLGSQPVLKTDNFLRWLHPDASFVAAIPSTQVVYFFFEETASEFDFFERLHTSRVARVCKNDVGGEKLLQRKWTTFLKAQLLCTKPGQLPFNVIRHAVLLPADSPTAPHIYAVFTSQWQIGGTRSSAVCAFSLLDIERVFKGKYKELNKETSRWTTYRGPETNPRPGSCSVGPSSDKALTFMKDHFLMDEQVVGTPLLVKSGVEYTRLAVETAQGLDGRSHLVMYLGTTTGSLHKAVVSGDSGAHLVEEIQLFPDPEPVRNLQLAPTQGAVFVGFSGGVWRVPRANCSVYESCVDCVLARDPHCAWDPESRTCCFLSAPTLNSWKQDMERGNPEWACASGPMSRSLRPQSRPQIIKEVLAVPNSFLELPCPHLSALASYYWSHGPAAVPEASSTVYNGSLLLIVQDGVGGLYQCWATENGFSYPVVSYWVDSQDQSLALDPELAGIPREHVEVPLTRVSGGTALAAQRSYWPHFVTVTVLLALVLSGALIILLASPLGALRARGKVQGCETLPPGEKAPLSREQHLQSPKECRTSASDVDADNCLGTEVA
The experiment is described as follows: Mirrorball direct binding, dilution series on expi293 cells transiently transfected with cynomolgus SEMA4A, anti-human Alexa Fluor 647.
From the text: as §1

B1: C0120924 (antibody, V domains shown)
VH: QVQLVQSGAEVKKPGASVKVSCKASGYKLNDPGVHGVSWVRQAPGQGLEWMGWISTLNGDTRYAQKFQGRVTMTTDSSTSTIYMELRSLRSDDTAVYYCARDDYTAIFDFWGQGTLVTVSS
VL: SSVLTQPPSVSVAPGQTARITCGGSNIGSQSVHWYQQKPGQAPVLVVYDDSDRPSGIPERFSGSKSGNTATLTISRVEAGDEADYYCQVWDSSTDHHVFGTGTKVTVL
modifications: 239iCys and S442C (EU numbering) in the constant region
notes: one of the 6 germlined clones of m49; purified, unconjugated; also called C0120924 germlined human Alya IgG1
B1: the binding result in experiment [1] was “binds”; in experiment [2], “no binding (tested: log (M) -8 (1e-8 M))”; in experiment [3], “binds”; in experiment [4], “binds”.
